The source of these data is paper PMC4552014, “High Affinity Binders to EphA2 Isolated from Abdurin Scaffold Libraries; Characterization, Binding and Tumor Targeting” (PLoS ONE, 2015).

By Kd is commonly meant the free concentration of one partner at which half of the binding sites on the other are occupied at equilibrium, for simple one-to-one binding. As usually defined, the koff is a measure of how fast the partners let go of each other. What is called kon is the rate constant with which the complex forms.

Assay [1] addresses human FcRn (human) (UniProt P55899). Nature of the assay: SPR; Biacore 3000, on hFcRn; who was immobilised and the conditions not given. Background: Surface plasmon resonance follows binding to a sensor surface in real time, without labels.
The target of assay [2] is T1, hEphA2 on CHOK1-EphA2 cells (human, UniProt P29317 24-976).
T1 construct: EphA2, human, transfection-ready hEphA2 cDNA (OriGene Technologies); also called cell-surface expressed hEphA2; source: CHOK1 cells transfected with hEphA2 cDNA (OriGene Technologies), single cell clone, on cells
T1 sequence (P29317 24-976): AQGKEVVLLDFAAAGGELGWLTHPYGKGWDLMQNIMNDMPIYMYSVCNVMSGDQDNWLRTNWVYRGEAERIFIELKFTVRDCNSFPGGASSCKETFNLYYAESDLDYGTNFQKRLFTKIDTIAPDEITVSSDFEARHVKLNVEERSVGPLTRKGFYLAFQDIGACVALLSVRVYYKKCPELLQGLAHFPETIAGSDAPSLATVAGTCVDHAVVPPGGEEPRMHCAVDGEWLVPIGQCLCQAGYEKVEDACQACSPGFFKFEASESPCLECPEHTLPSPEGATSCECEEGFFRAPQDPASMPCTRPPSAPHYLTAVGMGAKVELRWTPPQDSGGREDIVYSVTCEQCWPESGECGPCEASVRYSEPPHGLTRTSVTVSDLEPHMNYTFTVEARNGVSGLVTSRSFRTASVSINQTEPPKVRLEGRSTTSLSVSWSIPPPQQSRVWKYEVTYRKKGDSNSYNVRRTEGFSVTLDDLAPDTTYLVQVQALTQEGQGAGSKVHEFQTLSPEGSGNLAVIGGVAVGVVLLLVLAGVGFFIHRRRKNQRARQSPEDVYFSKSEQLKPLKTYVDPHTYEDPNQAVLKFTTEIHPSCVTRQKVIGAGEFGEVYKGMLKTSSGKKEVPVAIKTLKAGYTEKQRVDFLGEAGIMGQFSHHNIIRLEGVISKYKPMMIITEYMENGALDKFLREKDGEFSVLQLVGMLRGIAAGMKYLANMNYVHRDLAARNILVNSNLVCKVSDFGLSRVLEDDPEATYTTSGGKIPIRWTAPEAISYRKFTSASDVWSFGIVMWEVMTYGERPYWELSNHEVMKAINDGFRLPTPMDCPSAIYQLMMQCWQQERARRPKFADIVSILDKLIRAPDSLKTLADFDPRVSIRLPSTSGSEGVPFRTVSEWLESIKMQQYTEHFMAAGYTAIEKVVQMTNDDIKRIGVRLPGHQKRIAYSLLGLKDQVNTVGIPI
Nature of the assay: flow cytometry on cells; Abdurins at 1nM to 7μM incubated with CHOK1-EphA2 cells; detected with mouse anti-HisTag-FITC; the constant is printed as 'Affinity (M)'. The following applies: one partner purified. On the technique in general: A flow cytometer gives signals particle by particle.

The target of assay [3] is T2, murine EphA2-Fc fusion protein (mouse, UniProt Q03145 26-538).
T2 construct: ephrin receptor tyrosine kinase class A2 (EphA2), mouse, extracellular domain as Fc chimera; Biotinylated in-house (EZ-Link Sulfo-NHS-LC-Biotin) for the CIS display selections and the screening ELISA; also called mEphA2-Fc; mEphA2; source: bought: R&D Systems
T2 sequence (Q03145 26-538): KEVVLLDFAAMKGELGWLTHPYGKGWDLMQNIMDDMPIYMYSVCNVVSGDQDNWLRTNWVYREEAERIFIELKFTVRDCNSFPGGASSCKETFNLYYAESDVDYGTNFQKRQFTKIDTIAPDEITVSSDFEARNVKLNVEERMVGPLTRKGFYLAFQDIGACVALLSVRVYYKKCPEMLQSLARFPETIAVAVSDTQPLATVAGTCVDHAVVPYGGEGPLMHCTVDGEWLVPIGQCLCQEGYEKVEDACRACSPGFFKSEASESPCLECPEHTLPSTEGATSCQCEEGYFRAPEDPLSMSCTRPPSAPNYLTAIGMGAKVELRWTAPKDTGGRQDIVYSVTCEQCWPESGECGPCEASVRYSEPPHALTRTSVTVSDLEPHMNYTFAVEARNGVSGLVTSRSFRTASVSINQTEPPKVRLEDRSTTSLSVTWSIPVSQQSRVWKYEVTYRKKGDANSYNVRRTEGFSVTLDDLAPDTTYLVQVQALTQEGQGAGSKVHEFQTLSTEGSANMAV
Nature of the assay: ELISA; end-point titration ELISA in 96-well plates coated with hEphA2-Fc or mEphA2-Fc; purified Abdurins titrated; detected by anti-FLAG M2-HRP; the constant is printed as 'Affinity (M)'. The following applies: both partners purified. (In general: ELISA stands for enzyme-linked immunosorbent assay.)

Assay [4] has as its target T3, hEphA2-Fc (human, UniProt P29317 24-537).
T3 construct: EphA2, human, as Fc fusion coated on 96-well plates; Probably the extracellular domain; also called huEphA2
Described as above. The following applies: both partners purified.

The target in assay [5] is human EphA2 recombinant protein (human, UniProt P29317 24-976, Construct limits are not given; the soluble recombinant receptor is taken as the mature extracellular domain from the UniProt features. The Fig 3 legend names an Fc fusion (hEphA2-Fc), and the Fc is). Nature of the assay: SPR; Biacore 3000; hEphA2 immobilised on CM5 chip by amine coupling (500 RU); Abdurins as analyte, multi-cycle kinetics in HBS-P (50 mM Hepes pH 7.4, 150 mM NaCl, 0.005% P-20), 40 μl/minute; 1:1 binding model; repeated three times. The following applies: both partners purified.
human EphA2 recombinant protein, sequence (P29317 24-976): as the sequence (P29317 24-976) above

The target of assay [6] is T2, murine EphA2-Fc fusion protein. Nature of the assay: SPR; Biacore 3000, on mEphA2; purified Abdurins from E. coli; immobilisation for mEphA2 not described. The following applies: both partners purified.

Changes are numbered by the printed parent chain.

T3 sequence (P29317 24-537): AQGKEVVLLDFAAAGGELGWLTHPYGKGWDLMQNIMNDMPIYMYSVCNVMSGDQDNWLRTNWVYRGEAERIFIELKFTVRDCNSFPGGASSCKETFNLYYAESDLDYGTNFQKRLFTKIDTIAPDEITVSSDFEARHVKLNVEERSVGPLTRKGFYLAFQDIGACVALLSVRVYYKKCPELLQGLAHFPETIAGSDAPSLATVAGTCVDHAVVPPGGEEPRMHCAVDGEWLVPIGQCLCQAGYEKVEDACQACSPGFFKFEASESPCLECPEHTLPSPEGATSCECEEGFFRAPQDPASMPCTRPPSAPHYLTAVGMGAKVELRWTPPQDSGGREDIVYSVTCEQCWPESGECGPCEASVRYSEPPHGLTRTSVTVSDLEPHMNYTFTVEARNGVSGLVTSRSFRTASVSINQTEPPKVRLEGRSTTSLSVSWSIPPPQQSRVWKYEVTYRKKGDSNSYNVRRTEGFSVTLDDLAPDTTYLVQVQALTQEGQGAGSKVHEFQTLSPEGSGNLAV

For “shWTCH2 (version of the wild-type CH2 domain that has the N-terminal seven amino acids truncated) (domain or fragment)”, in assay [1], the Kd is 25 nM, the koff is 0.017 s⁻¹ and the kon was found to be 1.5e+06 M⁻¹ s⁻¹.

B1: Abdurin B11, affinity matured EphA2 binder (designed binder)
chain: GPSVFLFPPKPKDTLMISRTPEVTCVVVDYRADYLEVKFNWYVDGVEVHNAKTKPRQYDPLYGYRVVSVLTVLHQDWLNGKEYKCKVSNKALPAPIEKTISKAK
notes: Abdurin scaffold (human IgG1 CH2 domain), stretch before loop BC; loop BC of matured clone B11, in place of Val266-Pro271 (VSHEDP) of the scaffold; Abdurin scaffold (human IgG1 CH2 domain), stretch between loops BC and DE; loop DE from the parental clone E10, in place of Glu293-Thr299 (EEQYNST); Abdurin scaffold (human IgG1 CH2 domain), stretch after loop DE; Not the phage loop DE clone of the …
As to B1, the Kd in assay [1] amounted to 26 nM; in assay [2], 403 nM; in assay [3], 9.89 nM; in assay [4], 4.43 nM. In addition, the koff worked out at 0.013 s⁻¹ in assay [1] and 0.0158 s⁻¹ in assay [5]. Moreover, the kon amounted to 1.1e+06 M⁻¹ s⁻¹ in assay [1] and 1.21e+06 M⁻¹ s⁻¹ in assay [5].

B2: Abdurin B6, affinity matured EphA2 binder (designed binder)
chain: B1 chain with Y30P, R31Y, A32L, D33H, Y34D, L35D
notes: Abdurin scaffold (human IgG1 CH2 domain), stretch before loop BC; loop BC of matured clone B6, in place of Val266-Pro271 (VSHEDP) of the scaffold; Abdurin scaffold (human IgG1 CH2 domain), stretch between loops BC and DE; loop DE from the parental clone E10, in place of Glu293-Thr299 (EEQYNST); Abdurin scaffold (human IgG1 CH2 domain), stretch after loop DE; source: E. coli Shuffle cells, …
For B2, the Kd came out at 38 nM in assay [1], 151 nM in assay [2], 3.5 nM in assay [3] and 6.54 nM in assay [4]. For the same molecule, the koff in assay [1] came out at 0.011 s⁻¹; in assay [5], 0.0496 s⁻¹. The results for the kon in assay [1] and in assay [5] were 1.1e+06 M⁻¹ s⁻¹ and 716000 M⁻¹ s⁻¹, respectively.

B3: Abdurin G7, affinity matured EphA2 binder (designed binder)
chain: B1 chain with Y30P, R31H, A32L, D33G, Y34V, L35D
notes: Abdurin scaffold (human IgG1 CH2 domain), stretch before loop BC; loop BC of matured clone G7, in place of Val266-Pro271 (VSHEDP) of the scaffold; Abdurin scaffold (human IgG1 CH2 domain), stretch between loops BC and DE; loop DE from the parental clone E10, in place of Glu293-Thr299 (EEQYNST); Abdurin scaffold (human IgG1 CH2 domain), stretch after loop DE; source: E. coli Shuffle cells, …
Regarding B3, the Kd in assay [2] was 333 nM; in assay [3], 3.18 nM; in assay [4], 8.06 nM. In addition, in assay [5], the koff stood at 0.0375 s⁻¹. In addition, the kon in assay [5] was 1.8e+06 M⁻¹ s⁻¹.

B4: Abdurin D2, affinity matured EphA2 binder (designed binder)
chain: B1 chain with R31E, D33A, Y34A
notes: Abdurin scaffold (human IgG1 CH2 domain), stretch before loop BC; loop BC of matured clone D2, in place of Val266-Pro271 (VSHEDP) of the scaffold; Abdurin scaffold (human IgG1 CH2 domain), stretch between loops BC and DE; loop DE from the parental clone E10, in place of Glu293-Thr299 (EEQYNST); Abdurin scaffold (human IgG1 CH2 domain), stretch after loop DE; Not the phage loop DE clone of the …
With B4, the figures for the Kd in assay [2], in assay [3] and in assay [4] were 1310 nM, 1.97 nM and 2.55 nM, respectively.

B5: Abdurin H6, purified loop DE binder (designed binder)
chain: B1 chain with Y30V, R31S, A32H, D33E, Y34D, L35P, Q57R, Y58V, Y62G
notes: Abdurin scaffold (human IgG1 CH2 domain), stretch before loop DE; loop DE of clone H6, in place of Glu293-Thr299 (EEQYNST) of the scaffold; Abdurin scaffold (human IgG1 CH2 domain), stretch after loop DE
B5: in assay [6], the affinity, expressed as Kd, was 873 nM; the koff was determined as 0.008 s⁻¹; the kon amounted to 9610 M⁻¹ s⁻¹.
